Measured values from patent US20100216715A1 (Novo Nordisk, published 2010).
Positions count from the first letter of the chain named. In names and notes the source's numbering stands.

T1: human beta-Klotho (human, UniProt Q86Z14 1-1044)
T1 sequence (looked up): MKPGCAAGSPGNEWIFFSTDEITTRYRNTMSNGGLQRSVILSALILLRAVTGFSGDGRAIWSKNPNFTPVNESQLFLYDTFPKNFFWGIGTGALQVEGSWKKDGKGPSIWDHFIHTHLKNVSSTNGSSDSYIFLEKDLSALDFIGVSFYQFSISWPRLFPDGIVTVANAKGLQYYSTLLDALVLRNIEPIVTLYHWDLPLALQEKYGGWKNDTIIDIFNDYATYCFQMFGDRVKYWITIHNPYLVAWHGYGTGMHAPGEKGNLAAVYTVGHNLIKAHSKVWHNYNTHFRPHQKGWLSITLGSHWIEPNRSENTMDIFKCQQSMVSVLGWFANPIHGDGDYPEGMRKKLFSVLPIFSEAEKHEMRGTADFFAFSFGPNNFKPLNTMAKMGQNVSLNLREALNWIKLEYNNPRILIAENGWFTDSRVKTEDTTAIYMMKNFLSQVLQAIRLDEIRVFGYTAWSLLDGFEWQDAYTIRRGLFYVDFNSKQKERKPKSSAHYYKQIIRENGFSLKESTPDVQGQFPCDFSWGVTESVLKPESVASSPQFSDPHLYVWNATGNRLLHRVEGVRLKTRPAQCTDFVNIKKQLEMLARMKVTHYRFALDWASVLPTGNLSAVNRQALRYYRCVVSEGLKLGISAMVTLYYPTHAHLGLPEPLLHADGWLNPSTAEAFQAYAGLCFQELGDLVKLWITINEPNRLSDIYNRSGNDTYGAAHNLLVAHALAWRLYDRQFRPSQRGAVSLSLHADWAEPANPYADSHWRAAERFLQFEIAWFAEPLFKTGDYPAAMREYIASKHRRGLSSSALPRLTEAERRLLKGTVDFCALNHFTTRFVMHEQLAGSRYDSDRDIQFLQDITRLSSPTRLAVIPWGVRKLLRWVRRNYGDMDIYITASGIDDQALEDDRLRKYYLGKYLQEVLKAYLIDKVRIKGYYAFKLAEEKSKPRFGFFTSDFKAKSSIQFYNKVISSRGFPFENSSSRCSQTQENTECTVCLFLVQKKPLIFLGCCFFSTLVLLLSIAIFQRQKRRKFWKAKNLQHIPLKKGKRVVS

B1: (145aP, 145bM, L146V, P149E, G151E, I152D, A154R, P155G, Q156H, P157L, P158E, D159S, V160D, G161M, S162F, D164S, S167E, M168T, V169D, G170S, P171M, S172D, … (ligand)
chain: MHPIPDSSPLLQFGGQVRQRYLYTDDAQQTEAHLEIREDGTVGGAADQSPESLLQLKALKPGVIQILGVKTSRFLCQRPDGALYGSLHFDPEACSFRELLLEDGYNVYQSEAHGLPLHLPGNKSPHRDPAPRGPARFLPLPGLPPAPMVPEEPEDLRGHLESDMFSSPLETDSMDPFGLVTGLEAVRSPSFEK
B2: (S71C, N121Q, L166F, S167G, M168L, 169aT, P171L, S172E, Q173A, G174V, Y179F, A180E, S181K) Gly-FGF21 (ligand)
chain: GHPIPDSSPLLQFGGQVRQRYLYTDDAQQTEAHLEIREDGTVGGAADQSPESLLQLKALKPGVIQILGVKTCRFLCQRPDGALYGSLHFDPEACSFRELLLEDGYNVYQSEAHGLPLHLPGQKSPHRDPAPRGPARFLPLPGLPPALPEPPGILAPQPPDVGSSDPFGLVTGLEAVRSPSFEK
B3: (-1G, 71C, 166F, 167G, 168L, 169aT, 171L, 172E, 173A, 174V, 179F, 180E, 181K) FGF21 derivative of Example 15 (ligand)
chain: B2 chain with Q122N
modifications: S-71-({2-[2-(2-{2-[2-(2-{2-[(S)-4-carboxy-4-(17-carboxy-heptadecanoylamino)-butyrylamino]-ethoxy}-ethoxy)-acetylamino]-ethoxy}-ethoxy)-acetyl-amino]-ethylcarbamoyl}-methyl) on the thiol of Cys71
B4: (166F, 167G, 168L, 169aT, 171L, 172E, 173A, 174V, 179F, 180E, 181K) (Compound Z) (ligand)
chain: B2 chain with G1M, C72S, Q122N
B5: (-1G, 71C, 121Q, 166F, 167G, 168L, 169aT, 171L, 172E, 173A, 174V, 179F, 180E, 181K) FGF21 derivative of Example 16 (ligand)
chain: B2 chain
modifications: S-71-({2-[2-(2-{2-[2-(2-{2-[(S)-4-carboxy-4-(17-carboxy-heptadecanoylamino)-butyrylamino]-ethoxy}-ethoxy)-acetylamino]-ethoxy}-ethoxy)-acetylamino]-ethylcarbamoyl}-methyl) on the thiol of Cys71
B6: (S71C, L166F, S167G, M168L, 169aT, P171L, S172E, Q173A, G174V, Y179F, A180E, S181K) Gly-FGF21 (ligand)
chain: B2 chain with Q122N
B7: (-14E, -13E, -12A, -11E, -10A, -9G, -8G, -7A, -6G, -5G, -4S, -3G, -2G, -1S, K56R, 59R, 69R, 122R) FGF21 derivative of Example 51 (ligand)
chain: EEAEAGGAGGSGGSHPIPDSSPLLQFGGQVRQRYLYTDDAQQTEAHLEIREDGTVGGAADQSPESLLQLRALRPGVIQILGVRTSRFLCQRPDGALYGSLHFDPEACSFRELLLEDGYNVYQSEAHGLPLHLPGNRSPHRDPAPRGPARFLPLPGLPPALPEPPGILAPQPPDVGSSDPLSMVGPSQGRSPSYAS
modifications: N-alpha-1-[(S)-4-carboxy-4-(17-carboxy-heptadecanoylamino)-butyryl] on the N-terminal alpha amino group
B8: (D102N) Met-FGF21 (ligand)
chain: MHPIPDSSPLLQFGGQVRQRYLYTDDAQQTEAHLEIREDGTVGGAADQSPESLLQLKALKPGVIQILGVKTSRFLCQRPDGALYGSLHFDPEACSFRELLLENGYNVYQSEAHGLPLHLPGNKSPHRDPAPRGPARFLPLPGLPPALPEPPGILAPQPPDVGSSDPLSMVGPSQGRSPSYAS
B9: D102T Met-FGF21 (ligand)
chain: B8 chain with N103T
B10: (N121Q) Met-FGF21 (ligand)
chain: B8 chain with N103D, N122Q
B11: (N121D) Met-FGF21 (ligand)
chain: B8 chain with N103D, N122D
B12: K122C Met-FGF21 derivative of Example 4 (ligand)
chain: B8 chain with N103D, K123C
modifications: S-122-[1-(2-{2-[2-(2-{2-[2-(2-{2-[(S)-4-carboxy-4-(17-carboxy-heptadecanoylamino)-butyrylamino]-ethoxy}-ethoxy)-acetylamino]-ethoxy}-ethoxy)-acetylamino]-ethylcarbamoyl}-ethyl)-2,5-dioxo-pyrrolidin-3-yl] on the thiol of Cys122
B13: (Q15F) Met-FGF21 (ligand)
chain: B8 chain with Q16F, N103D

These binders were tested against T1, human beta-Klotho (assay: cell-based or functional assay).

pERK-HEK293-Beta-klotho without HSA [EC50 (nM)] Median Value [nM]	Binder
17	B1
1.1	B2
1.6	B3
1	B4
1.4	B5
1.4	B6
12	B7
0.7	B8
1.7	B9
1	B10
1.2	B11
0.9	B12
3.3	B13
